# B1: ELP1,80-CapG (designed binder)
# chain: MSKGPGVGVPGLGVPGVGVPGLGVPGVGVPGVGVPGLGVPGVGVPGLGVPGVGVPVGVPGLGVPGVGVPGLGVPGVGVPGVGVPGLGVPGVGVPGLGVPGVGVPVGVPGLGVPGVGVPGLGVPGVGVPGVGVPGLGVPGVGVPGLGVPGVGVPVGVPGLGVPGVGVPGLGVPGVGVPGVGVPGLGVPGVGVPGLGVPGVGVPVGVPGLGVPGVGVPGLGVPGVGVPGVGVPGLGVPGVGVPGLGVPGVGVPVGVPGLGVPGVGVPGLGVPGVGVPGVGVPGLGVPGVGVPGLGVPGVGVPVGVPGLGVPGVGVPGLGVPGVGVPGVGVPGLGVPGVGVPGLGVPGVGVPVGVPGLGVPGVGVPGLGVPGVGVPGVGVPGLGVPGVGVPGLGVPGVGVPGTYKLILNGKTLKGETTTEAVDAATAEKVFKQYANDNGVDGEWTYDDATKTFTVTEG
# notes: Expressed in E. coli; also called fusion comprised of an optimal ELP and a Protein G domain
# Molecular target: human serum albumin (human, UniProt P02768 25-609)
# Experiment: phase separation pull-down with 0.6 M NaCl and centrifugation, supernatant and pellet on SDS-PAGE
# Chain of human serum albumin (P02768 25-609 limits assumed): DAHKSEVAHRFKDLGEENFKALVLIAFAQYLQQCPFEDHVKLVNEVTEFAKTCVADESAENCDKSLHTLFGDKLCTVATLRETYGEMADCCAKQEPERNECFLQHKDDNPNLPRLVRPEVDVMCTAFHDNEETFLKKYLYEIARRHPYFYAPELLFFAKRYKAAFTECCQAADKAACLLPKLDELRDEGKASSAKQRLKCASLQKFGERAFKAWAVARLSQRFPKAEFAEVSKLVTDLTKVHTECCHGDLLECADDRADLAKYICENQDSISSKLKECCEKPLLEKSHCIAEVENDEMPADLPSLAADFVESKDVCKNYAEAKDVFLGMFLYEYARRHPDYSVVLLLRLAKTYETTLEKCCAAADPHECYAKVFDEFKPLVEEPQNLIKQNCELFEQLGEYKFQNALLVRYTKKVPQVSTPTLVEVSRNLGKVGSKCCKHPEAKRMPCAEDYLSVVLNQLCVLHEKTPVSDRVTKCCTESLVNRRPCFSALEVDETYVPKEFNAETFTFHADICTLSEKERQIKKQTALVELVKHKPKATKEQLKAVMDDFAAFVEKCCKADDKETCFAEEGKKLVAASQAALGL
binder,measurement,value
B1,binding result,no binding
